Results from patent US20160272683A1 (Novo Nordisk, published 2016).
Numbered stars: 1 amine (or outer) side, 2 acyl side, 3 side chain; on linkers, the order of the positions; unused ones are H or OH. * marks the point of attachment. C20 diacid = O=C(O)CCCCCCCCCCCCCCCCCCC(=O)*; C18 diacid = O=C(O)CCCCCCCCCCCCCCCCC(=O)*; C16 diacid = O=C(O)CCCCCCCCCCCCCCC(=O)*; γGlu = O=C(O)[C@H](CCC(=O)[*:2])N[*:1]

B1: [N-terminal(C18 diacid-gGlu), des1, 30S, 31P]mimylin (peptide)
peptide: {C18 diacid-γGlu}-ASELSTAALGRLSAELHELATLPRTETGSPSP-NH2
SMILES: CC(C)C[C@H](NC(=O)[C@H](C)NC(=O)[C@H](C)NC(=O)[C@@H](NC(=O)[C@H](CO)NC(=O)[C@H](CC(C)C)NC(=O)[C@H](CCC(=O)O)NC(=O)[C@H](CO)NC(=O)[C@H](C)NC(=O)CC[C@H](NC(=O)CCCCCCCCCCCCCCCCC(=O)O)C(=O)O)[C@@H](C)O)C(=O)NCC(=O)N[C@@H](CCCNC(=N)N)C(=O)N[C@@H](CC(C)C)C(=O)N[C@@H](CO)C(=O)N[C@@H](C)C(=O)N[C@@H](CCC(=O)O)C(=O)N[C@@H](CC(C)C)C(=O)N[C@@H](Cc1c[nH]cn1)C(=O)N[C@@H](CCC(=O)O)C(=O)N[C@@H](CC(C)C)C(=O)N[C@@H](C)C(=O)N[C@H](C(=O)N[C@@H](CC(C)C)C(=O)N1CCC[C@H]1C(=O)N[C@@H](CCCNC(=N)N)C(=O)N[C@H](C(=O)N[C@@H](CCC(=O)O)C(=O)N[C@H](C(=O)NCC(=O)N[C@@H](CO)C(=O)N1CCC[C@H]1C(=O)N[C@@H](CO)C(=O)N1CCC[C@H]1C(N)=O)[C@@H](C)O)[C@@H](C)O)[C@@H](C)O
B2: [N-terminal(C18 diacid), 3P, 4P, 9V]mimylin (peptide)
peptide: {C18 diacid}-EAPPLSTAVLGRLSAELHELATLPRTETGPESP-NH2
SMILES: CC(C)C[C@H](NC(=O)[C@H](CCC(=O)O)NC(=O)[C@H](Cc1c[nH]cn1)NC(=O)[C@H](CC(C)C)NC(=O)[C@H](CCC(=O)O)NC(=O)[C@H](C)NC(=O)[C@H](CO)NC(=O)[C@H](CC(C)C)NC(=O)[C@H](CCCNC(=N)N)NC(=O)CNC(=O)[C@H](CC(C)C)NC(=O)[C@@H](NC(=O)[C@H](C)NC(=O)[C@@H](NC(=O)[C@H](CO)NC(=O)[C@H](CC(C)C)NC(=O)[C@@H]1CCCN1C(=O)[C@@H]1CCCN1C(=O)[C@H](C)NC(=O)[C@H](CCC(=O)O)NC(=O)CCCCCCCCCCCCCCCCC(=O)O)[C@@H](C)O)C(C)C)C(=O)N[C@@H](C)C(=O)N[C@H](C(=O)N[C@@H](CC(C)C)C(=O)N1CCC[C@H]1C(=O)N[C@@H](CCCNC(=N)N)C(=O)N[C@H](C(=O)N[C@@H](CCC(=O)O)C(=O)N[C@H](C(=O)NCC(=O)N1CCC[C@H]1C(=O)N[C@@H](CCC(=O)O)C(=O)N[C@@H](CO)C(=O)N1CCC[C@H]1C(N)=O)[C@@H](C)O)[C@@H](C)O)[C@@H](C)O
B3: [N-terminal(C18 diacid), 5I, 9I, 10I]mimylin (peptide)
peptide: {C18 diacid}-EASEISTAIIGRLSAELHELATLPRTETGPESP-NH2
SMILES: CC[C@H](C)[C@H](NC(=O)[C@H](C)NC(=O)[C@@H](NC(=O)[C@H](CO)NC(=O)[C@@H](NC(=O)[C@H](CCC(=O)O)NC(=O)[C@H](CO)NC(=O)[C@H](C)NC(=O)[C@H](CCC(=O)O)NC(=O)CCCCCCCCCCCCCCCCC(=O)O)[C@@H](C)CC)[C@@H](C)O)C(=O)N[C@H](C(=O)NCC(=O)N[C@@H](CCCNC(=N)N)C(=O)N[C@@H](CC(C)C)C(=O)N[C@@H](CO)C(=O)N[C@@H](C)C(=O)N[C@@H](CCC(=O)O)C(=O)N[C@@H](CC(C)C)C(=O)N[C@@H](Cc1c[nH]cn1)C(=O)N[C@@H](CCC(=O)O)C(=O)N[C@@H](CC(C)C)C(=O)N[C@@H](C)C(=O)N[C@H](C(=O)N[C@@H](CC(C)C)C(=O)N1CCC[C@H]1C(=O)N[C@@H](CCCNC(=N)N)C(=O)N[C@H](C(=O)N[C@@H](CCC(=O)O)C(=O)N[C@H](C(=O)NCC(=O)N1CCC[C@H]1C(=O)N[C@@H](CCC(=O)O)C(=O)N[C@@H](CO)C(=O)N1CCC[C@H]1C(N)=O)[C@@H](C)O)[C@@H](C)O)[C@@H](C)O)[C@@H](C)CC
B4: [N-terminal(C18 diacid), 5V, 9V, 20V]mimylin (peptide)
peptide: {C18 diacid}-EASEVSTAVLGRLSAELHEVATLPRTETGPESP-NH2
SMILES: CC(C)C[C@H](NC(=O)[C@H](CCCNC(=N)N)NC(=O)CNC(=O)[C@H](CC(C)C)NC(=O)[C@@H](NC(=O)[C@H](C)NC(=O)[C@@H](NC(=O)[C@H](CO)NC(=O)[C@@H](NC(=O)[C@H](CCC(=O)O)NC(=O)[C@H](CO)NC(=O)[C@H](C)NC(=O)[C@H](CCC(=O)O)NC(=O)CCCCCCCCCCCCCCCCC(=O)O)C(C)C)[C@@H](C)O)C(C)C)C(=O)N[C@@H](CO)C(=O)N[C@@H](C)C(=O)N[C@@H](CCC(=O)O)C(=O)N[C@@H](CC(C)C)C(=O)N[C@@H](Cc1c[nH]cn1)C(=O)N[C@@H](CCC(=O)O)C(=O)N[C@H](C(=O)N[C@@H](C)C(=O)N[C@H](C(=O)N[C@@H](CC(C)C)C(=O)N1CCC[C@H]1C(=O)N[C@@H](CCCNC(=N)N)C(=O)N[C@H](C(=O)N[C@@H](CCC(=O)O)C(=O)N[C@H](C(=O)NCC(=O)N1CCC[C@H]1C(=O)N[C@@H](CCC(=O)O)C(=O)N[C@@H](CO)C(=O)N1CCC[C@H]1C(N)=O)[C@@H](C)O)[C@@H](C)O)[C@@H](C)O)C(C)C
B5: [N-terminal(C20 diacid-gGlu), 23Y, 30S, 31G]mimylin (peptide)
peptide: {C20 diacid-γGlu}-EASELSTAALGRLSAELHELATYPRTETGSGSP-NH2
SMILES: CC(C)C[C@H](NC(=O)[C@H](C)NC(=O)[C@H](C)NC(=O)[C@@H](NC(=O)[C@H](CO)NC(=O)[C@H](CC(C)C)NC(=O)[C@H](CCC(=O)O)NC(=O)[C@H](CO)NC(=O)[C@H](C)NC(=O)[C@H](CCC(=O)O)NC(=O)CC[C@H](NC(=O)CCCCCCCCCCCCCCCCCCC(=O)O)C(=O)O)[C@@H](C)O)C(=O)NCC(=O)N[C@@H](CCCNC(=N)N)C(=O)N[C@@H](CC(C)C)C(=O)N[C@@H](CO)C(=O)N[C@@H](C)C(=O)N[C@@H](CCC(=O)O)C(=O)N[C@@H](CC(C)C)C(=O)N[C@@H](Cc1c[nH]cn1)C(=O)N[C@@H](CCC(=O)O)C(=O)N[C@@H](CC(C)C)C(=O)N[C@@H](C)C(=O)N[C@H](C(=O)N[C@@H](Cc1ccc(O)cc1)C(=O)N1CCC[C@H]1C(=O)N[C@@H](CCCNC(=N)N)C(=O)N[C@H](C(=O)N[C@@H](CCC(=O)O)C(=O)N[C@H](C(=O)NCC(=O)N[C@@H](CO)C(=O)NCC(=O)N[C@@H](CO)C(=O)N1CCC[C@H]1C(N)=O)[C@@H](C)O)[C@@H](C)O)[C@@H](C)O
B6: [N-terminal(C16 diacid)]mimylin (peptide)
peptide: {C16 diacid}-EASELSTAALGRLSAELHELATLPRTETGPESP-NH2

Experiments:
[1] = biological target: T1, human amylin 3(a) receptor (human calcitonin receptor co-expressed with RAMP-3) (human, UniProt P30988 25-474; O60896 24-148, limits assumed); test: cell-based or functional assay
T1 sequence (looked up) 1: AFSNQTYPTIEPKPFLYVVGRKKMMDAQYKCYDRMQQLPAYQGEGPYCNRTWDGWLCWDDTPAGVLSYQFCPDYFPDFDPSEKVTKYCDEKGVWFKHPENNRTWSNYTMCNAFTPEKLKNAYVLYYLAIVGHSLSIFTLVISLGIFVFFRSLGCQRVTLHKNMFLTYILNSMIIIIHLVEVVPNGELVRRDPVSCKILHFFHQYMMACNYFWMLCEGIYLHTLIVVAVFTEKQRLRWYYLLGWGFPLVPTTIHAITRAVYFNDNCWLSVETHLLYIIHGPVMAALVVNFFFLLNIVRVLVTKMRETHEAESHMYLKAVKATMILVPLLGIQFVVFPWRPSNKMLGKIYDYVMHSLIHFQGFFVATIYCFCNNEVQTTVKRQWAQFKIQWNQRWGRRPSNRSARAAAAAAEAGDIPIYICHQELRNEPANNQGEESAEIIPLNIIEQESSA
T1 sequence (looked up) 2: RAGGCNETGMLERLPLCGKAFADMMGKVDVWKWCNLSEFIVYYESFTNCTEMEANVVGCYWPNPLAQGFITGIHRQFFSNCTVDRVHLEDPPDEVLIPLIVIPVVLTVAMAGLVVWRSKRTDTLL

[2] = biological target: T2, human calcitonin receptor (human, UniProt P30988 25-474); test: cell-based or functional assay
T2 sequence (looked up): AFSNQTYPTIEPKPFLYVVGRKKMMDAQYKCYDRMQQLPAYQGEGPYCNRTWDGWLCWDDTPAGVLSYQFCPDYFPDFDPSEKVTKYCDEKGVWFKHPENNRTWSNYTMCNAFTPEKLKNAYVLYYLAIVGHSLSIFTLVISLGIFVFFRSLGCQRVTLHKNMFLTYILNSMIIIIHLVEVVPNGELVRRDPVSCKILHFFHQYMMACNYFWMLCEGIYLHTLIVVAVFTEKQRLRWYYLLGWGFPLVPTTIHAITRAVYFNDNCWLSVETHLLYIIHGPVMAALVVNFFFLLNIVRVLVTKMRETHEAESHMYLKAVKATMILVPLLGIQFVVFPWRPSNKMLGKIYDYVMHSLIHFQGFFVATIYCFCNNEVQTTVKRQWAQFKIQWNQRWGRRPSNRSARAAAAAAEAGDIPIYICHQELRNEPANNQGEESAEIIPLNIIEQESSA

Binder | hAmylin-R funct. EC50 (pM) [1] [pM] | hCTR funct. EC50 (pM) [2] [pM]
B1 | 13 | 8
B2 | 12 | 6
B3 | 10 | 5
B4 | 23 | 54
B5 | 12 | 14
B6 | 8 | 4
